Source: paper doi:10.1101/2021.04.12.439584 (bioRxiv, 2021)

B1: LmForminB FH2 domain (714aa-1149aa) (domain or fragment)
chain: KPKPQYTGPRLKTFFWKKILKPSGIWAASDTDDVRRAVIDESFMLKLFKLKAVAQPSAAEGAAEKSEQERRSQLRSNVFTGQRLQNMGIALKRVQVPVEVLCKALITCDSAVLPPERREMLTAALPTTEDVTALTAEKQAGRSVWTEVETYLYTAATTVKDVRERLQLWTAAEELEDTVQSISSLLSSVDAAVCAITHRNGRFARMMRIILAFGNHLNRGTPHADAEGFRLESLNQLNFVKSSDGKTTVLMALVVSLMDSGRGRSERGGGTTSAPGADNDDDDVRNALRFVEDVSCVRAVANSPLQDMGQQVSQLNFTLQRMRRVVEEAKDTKAWYDKRLPSVKAEEVPDALPGLLREAVDRYLATVGQIALRYQQLRDDVSAMMATYGEDPNADETVIWGYVLQFSKDVQRCVDTVAAVHLTKRRLMGMPEATEQ
B2: LmForminA FH2 domain (695aa-1092aa) (domain or fragment)
chain: ASGAAAPMLNSSTTRNVPINGAVGDSDDAIFKAARPIELTAGARDKLLALFPKAAPKHVIEEDEATSRVQRILDVNRDRNVGIVLKFIRLPIQQIEASVRTFDTLTLGEERISGLLKIIPTSDDFEAIARAQKEHGGPWKRAEEQQLPQAVRFFLMTQRIDHYAERIHAWSLRYELHGRLEYLEQKLSKADKAIDATFASPSLPDLLYFLLEVSNFLNAGSRFQGAKGFPITQLPQIMDFKTTDGKGTLLQYVAEILDTVNPHLQAISSELMPAVDEGRDIDVASIEQELKKLRGRLQKCKHLIEQLKNDVRWTNVLGKFIYRSLPELERVEKLAESINGKAERLQEFLCEKKETFSLNEVLRVLSNFCKRYEQEREKQRLRQERQDRMEDNKQRRQS

Target: Rabbit skeletal muscle actin (rabbit, UniProt P68135 1-377)
Assay: co-sedimentation

Binder	Kd [nM]
B1	200
B2	1840
